Results on six molecules are retold here after US20260116951A1 (DUCENTIS BIOTHERAPEUTICS, published 2026).

The labels stand for the following.
B3: DS-192 (human CD200-Fc, K130Y, IgG4 Fc) (Fc fusion)
chain: QVQVVTQDEREQLYTPASLKCSLQNAQEALIVTWQKKKAVSPENMVTFSENHGVVIQPAYKDKINITQLGLQNSTITFWNITLEDEGCYMCLFNTFGFGYISGTACLTVYVQPIVSLHYKFSEDHLNITCSATARPAPMVFWKVPRSGIENSTVTLSHPNGTTSVTSILHIKDPKNQVGKEVICQVLHLGTVTDFKQTVNKGPPCPPCPAPEFLGGPSVFLFPPKPKDTLMISRTPEVTCVVVDVSQEDPEVQFNWYVDGVEVHNAKTKPREEQFNSTYRVVSVLTVLHQDWLNGKEYKCKVSNKGLPSSIEKTISKAKGQPREPQVYTLPPSQEEMTKNQVSLTCLVKGFYPSDIAVEWESNGQPENNYKTTPPVLDSDGSFFLYSRLTVDKSRWQEGNVFSCSVMHEALHNHYTQKSLSLSLGK
notes: also called 13 nM CD200-Fc; ha CD200-IgG4 Fc
B6: Recombinant Human CD200R, His-tagged (Creative Biomart CD200R1-320H) (receptor, UniProt Q8TD46 27-266, looked up)
chain: AAQPNNSLMLQTSKENHALASSSLCMDEKQITQNYSKVLAEVNTSWPVKMATNAVLCCPPIALRNLIIITWEIILRGQPSCTKAYKKETNETKETNCTDERITWVSRPDQNSDLQIRTVAITHDGYYRCIMVTPDGNFHRGYHLQVLVTPEVTLFQNRNRTAVCKAVAGKPAAHISWIPEGDCATKQEYWSNGTVTVKSTCHWEVHNVSTVTCHVSHLTGNKSLYIELLPVPGAKKSAKL
notes: Bought; also called human CD200 receptor; not shown: His tag

Assay [1] has as its target T1, muCD200R-Fc (Creative Biomart CD200R1-458M) (mouse, UniProt Q9ES57 26-238).
T1 construct: Captured on anti-human IgG Fc for the mouse CD200 measurements; also called Murine CD200R1; immobilized CD200R (muCD200); not shown: Fc of the bought fusion, not described (captured on anti-human IgG Fc)
T1 sequence (looked up): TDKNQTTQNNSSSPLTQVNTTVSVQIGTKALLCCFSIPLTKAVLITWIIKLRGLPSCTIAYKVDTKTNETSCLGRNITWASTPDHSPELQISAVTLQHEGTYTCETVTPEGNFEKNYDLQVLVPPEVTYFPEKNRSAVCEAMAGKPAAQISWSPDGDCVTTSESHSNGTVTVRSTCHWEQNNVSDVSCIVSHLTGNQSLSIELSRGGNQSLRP
The experiment in a line: SPR, his-tag mouse CD200 monomer flowed over muCD200R-Fc captured on anti-human Fc, 25 C, 1:1 fit. As for the experimental part: (§1) For mouse CD200 constructs, muCD200R-Fc (Creative Biomart CD200R1-458M) diluted to 1 μg/mL in running buffer was flowed over the immobilized Anti-Human IgG Fc, with CD200 monomers serially diluted and flowed over captured CD200R. Other details were as above. Data analysis: experimental sensorgrams were analyzed in BIAevaluation software (GE Healthcare). The curves obtained were fitted to 1:1 Langmuir binding model by setting Rmax and RI as local parameters. Rate equations using standard parameters (e.g. ligand concentration, time) were used for iterative curve fitting. Closeness of fit was determined by algorithms provided by the manufacturer in the BIAevaluation software, and data accepted if the Chi² value was less than 10% of Rₘₐₓ, and the U value was less than or equal to 15.
(§2) Curves obtained were fitted to 1:1 Langmuir binding model by setting Rmax and RI as local parameters. Rate equations using standard parameters (e.g. ligand concentration, time) were used for iterative curve fitting. […] Means of 2 experiments carried out on the same day are shown with standard deviation. Residue numbering for CD200 proteins refers to the pre-protein, containing a signal peptide which is cleaved during insertion into the endoplasmic reticulum.
For orientation: In SPR one partner is held on a chip, and binding of the other changes the refractive index at the surface.

For assay [2], the target named is T1, muCD200R-Fc (Creative Biomart …). The experiment in a line: SPR, his-tag mouse CD200 monomer flowed over muCD200R-Fc captured on anti-human Fc, 25 C, 1:1 fit, mean of 2 experiments with standard deviation. As for the experimental part:
as §1, §2

Assay [3] shares this target. The experiment in a line: SPR, monomeric binding. As for the experimental part: as §1, §2
Assay [4] has as its target B6. The experiment in a line: SPR, CD200R flowed over immobilized CD200-Fc, 25 C, 1:1 fit. As for the experimental part: (§3) For human CD200 constructs: anti-human Fc (GE Healthcare) was covalently immobilized on a BIAcore CM5 sensor chip (Cytiva, BR100530) by amine coupling using a Cytiva kit (BR100839) following the manufacturer's instructions, targeting immobilization of 8,000-11,000 RU. CD200-Fc proteins were diluted to 0.5 μg/mL to 4 μg/mL in running Buffer (1×HBS-EP+pH7.4 (Cytiva BR100669), HEPES Buffered Saline pH 7.4 containing 3 mM EDTA and 0.05% v/v Surfactant P20) and flowed for 25 to 100 seconds at 10 μL/min over the immobilized Anti-Human IgG Fc, with a stabilization time of 60 seconds. Between 35 and 250 RUs of CD200-Fc were captured, with higher RUs used for cynomolgus CD200R binding experiments. […] Analysis temperature was 25° C. This was followed by regeneration of the surface with 30-90 second pulse of 3M MgCl₂ flowed at […] flow rate followed by stabilization of the surface with 60 second flow of running buffer.
as §2

For assay [5], the target named is T2, Recombinant Cyno CD200R, His-tagged (Creative Biomart CD200R1-3483C) (cynomolgus monkey).
T2 construct: Bought; also called cynomolgus CD200R1; cynomolgus CD200R
The experiment in a line: SPR, cyno CD200R1 flowed over immobilized CD200-Fc, 25 C, 1:1 fit. As for the experimental part: as §3, §2

The target of assay [6] is T2, Recombinant Cyno CD200R, His-tagged …. As to the kind of experiment: SPR, cyno CD200R1 flowed over immobilized CD200-Fc, 25 C, 1:1 fit, mean of 2 experiments with standard deviation. As for the experimental part:
as §3, §2

Assay [7] concerns the target B3. The experiment in a line: SPR (BIAcore).
Assay [8] deals with B3. As to the kind of experiment: SPR, CD200R flowed over immobilized CD200-Fc, 25 C, 1:1 fit, mean of 2 experiments with standard deviation. As for the experimental part:
as §3, §2

B1: Murine wild-type CD200 monomer, his-tag (DS-131), printed in Table 7 as DS-198 (ligand, mouse, UniProt O54901 31-232, looked up)
chain: QVEVVTQDERKALHTTASLRCSLKTSQEPLIVTWQKKKAVSPENMVTYSKTHGVVIQPAYKDRINVTELGLWNSSITFWNTTLEDEGCYMCLFNTFGSQKVSGTACLTLYVQPIVHLHYNYFEDHLNITCSATARPAPAISWKGTGTGIENSTESHFHSNGTTSVTSILRVKDPKTQVGKEVICQVLYLGNVIDYKQSLDKG
notes: extracellular domain; the match of DS-131 to DS-198 follows the order of the sentence; also called wild type muCD200-Fc (the corresponding IgG2a Fc fusion); not shown: his tag
The term Kd denotes the equilibrium constant for the complex coming apart. With B1, the T1/2 in assay [1] was 0.288 min. The affinity in assay [2], expressed as Kd, was 584 nM.

B2: Murine CD200 H82Y, T125I monomer, his-tag (DS-169), printed in Table 7 as DS-227 (ligand, mouse, UniProt O54901 31-232, looked up)
chain: QVEVVTQDERKALHTTASLRCSLKTSQEPLIVTWQKKKAVSPENMVTYSKTYGVVIQPAYKDRINVTELGLWNSSITFWNTTLEDEGCYMCLFNIFGSQKVSGTACLTLYVQPIVHLHYNYFEDHLNITCSATARPAPAISWKGTGTGIENSTESHFHSNGTTSVTSILRVKDPKTQVGKEVICQVLYLGNVIDYKQSLDKG
notes: extracellular domain; See the note of m9; not shown: his tag
B2: the “fold higher affinity than wild type” value in assay [3] is approximately 14 fold. This molecule also showed a T1/2 in assay [1] of 1.96 min. Besides, the affinity in assay [2], expressed as Kd, was 43.3 nM. For the molecule B3, the figures for the T1/2 in assay [4] and in assay [5] were 3.1 min and 0.32 min, respectively. Besides, in assay [6], the Kd worked out at 459 nM.

B4: Human CD200R1L (receptor, UniProt Q6Q8B3 24-239, looked up)
chain: GKQMTQNYSTIFAEGNISQPVLMDINAVLCCPPIALRNLIIITWEIILRGQPSCTKAYKKETNETKETNCTVERITWVSRPDQNSDLQIRPVDTTHDGYYRGIVVTPDGNFHRGYHLQVLVTPEVNLFQSRNITAVCKAVTGKPAAQISWIPEGSILATKQEYWGNGTVTVKSTCPWEGHKSTVTCHVSHLTGNKSLSVKLNSGLRTSGSPALSLL
notes: nothing is said of the reagent
As to B4, in assay [7], the binding result is “no binding”.

B5: Mouse CD200R protein (Creative Biomart CD200R1-3280M) (receptor, UniProt Q9ES57 26-238, looked up)
chain: TDKNQTTQNNSSSPLTQVNTTVSVQIGTKALLCCFSIPLTKAVLITWIIKLRGLPSCTIAYKVDTKTNETSCLGRNITWASTPDHSPELQISAVTLQHEGTYTCETVTPEGNFEKNYDLQVLVPPEVTYFPEKNRSAVCEAMAGKPAAQISWSPDGDCVTTSESHSNGTVTVRSTCHWEQNNVSDVSCIVSHLTGNQSLSIELSRGGNQSLRP
notes: also called Murine CD200R1; murine CD200R
As to B5, the binding result in assay [7] is listed as “no binding”. With B6, the Kd in assay [8] came to 12.5 nM.
